Assay results taken from patent publication US20230279152A1 (published 2023).

Tests used:
[1] = biological target: human Claudin 18.2 protein (human); assay: cell-based or functional assay
[2] = biological target: T1, human Claudin 18.2 protein (human); assay: FACS cell surface binding analysis
T1 construct: Expressed on transfected cells (CHO-hCLDN18.2, HEK293-hCLDN18.2, 3T3-hCLDN18.2) from pCMV3-hCLDN18.2; also called human CLDN18.2; hCLDN18.2

[3] = biological target: T1, human Claudin 18.2 protein; assay: FACS on cells expressing CLDN18.2 versus cells expressing CLDN18.1 (reference: binding to CLDN18.1)
From the text: FACS cell binding assays. […] Cells were fixed with 1% paraformaldehyde (PFA) prior to analysis on FACSCalibur cytometer (BD biosciences, Franklin Lakes, N.J., U.S.). Controls were cells with secondary antibody only, for which the mean fluorescent intensity (MFI) was set to 5.

T1 sequence (chain, as listed by the source limits assumed): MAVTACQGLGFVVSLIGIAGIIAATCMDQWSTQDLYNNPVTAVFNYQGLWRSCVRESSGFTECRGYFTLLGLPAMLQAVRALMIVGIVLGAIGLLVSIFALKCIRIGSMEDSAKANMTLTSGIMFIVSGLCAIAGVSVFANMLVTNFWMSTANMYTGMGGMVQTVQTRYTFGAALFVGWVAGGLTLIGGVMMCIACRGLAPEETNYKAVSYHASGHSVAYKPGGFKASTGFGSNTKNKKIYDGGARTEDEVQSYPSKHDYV

Binder	EC50 [2]	fold stronger binding to CLDN18.2 than to CLDN18.1 [3]	TDCC activity (T cell dependent cellular cytotoxicity; CellTiter-Glo cell viability, PBMCs as effectors, 48 hours) [1]
47D10-huIgG1-V7×OKT3 (anti-CLDN18.2×CD3) bispecific antibody (bispecific antibody) heavy: not shown light: DIVMTQSPGTLSLSPGERATLSCRSSQSLLNSGNQKNYLTWYQQKPGQAPRLLIYWASTRESGIPDRFSGSGSGTDFTLTISRLEPEDFAVYYCQNNYIYPLTFGQGTKLEIKRTVAAPSVFIFPPSDEQLKSGTASVVCLLNNFYPREAKVQWKVDNALQSGNSQESVTEQDSKDSTYSLSSTLTLSKADYEKHKVYACEVTHQGLSSPVTKSFNRGECTSGGGGSGGGGSGGGGSQVQLVQSGGGVVQPGRSLRLSCKASGYTFTRYTMHWVRQAPGKGLEWIGYINPSRGYTNYNQKFKDRFTISRDNSKNTAFLQMDSLRPEDTGVYFCARYYDDHYSLDYWGQGTPVTVSSGGGGSGGGGSGGGGSGGGGSGGGGSGGGGSDIQMTQSPSSLSASVGDRVTITCSASSSVSYMNWYQQTPGKAPKRWIYDTSKLASGVPSRFSGSGSGTDYTFTISSLQPEDIATYYCQQWSSNPFTFGQGTKLQIT	–	–	1 pM
47D10 mouse chimeric antibody (murine VH/VL on human IgG1 constant regions) (antibody, V domains shown, also called murine clone 47D10; mouse 47D10 chimeric control antibody) VH: QVMLVESGGGLVKPGGSLKLSCAASGFAFSSSAMSWIRQTPEKRLEWVATMTVGYIYTYYLDTVKGRFIISRDNANNTLYLQMSSLRSEDSAMYYCARQGYGNAMDYWGQGTSVTVSS VL: DIVMTQSPSSLTVTAGEKVTMSCKSSQSLLNSGNQKNYLTWYQQKPGQPPKLLIYWASTRESGVPYRFTGSGSGTDFTLTISSVEAEDLAVYYCQNNYIYPLTFGAGTKLELK	1.97 nM	≥ 1000 times	–
15B10 mouse chimeric antibody (murine VH/VL on human IgG1 constant regions) (antibody, V domains shown, also called murine clone 15B10) VH: QVQLQQSGAELVRPGTSVKVSCKASGYAFSNYLIDWVKQRPGQGLEWIGVIHPGSGTNYNENFKGKATLTADKSSSTAYMQLSSLTSDDSAVYFCSRRWYGNSLIYWGQGTLVTVSA VL: DIVMTQSPSSLTVTAGEKVTMTCKSSQSLLNSGNQRNYLTWYQQKPGQPPKLLIYWASTRESGVPDRFTGSGSGTDFTLTISSVQAEDLAVYYCQNDYFYPFTFGSGTKLEIK	2.2 nM	≥ 1000 times	–
32G4-huIgG1-V8×OKT3 (anti-CLDN18.2×CD3) bispecific antibody (bispecific antibody) heavy: not shown light: DIQMTQSPSSLSASVGDRVTITCRSSQSLLNSGNQKNYLTWYQQKPGKAPKLLIFWASTLESGVPSRFSGSGSGTDFTLTISSLQPEDFATYYCQNNYYFPYTFGQGTKLEIKRTVAAPSVFIFPPSDEQLKSGTASVVCLLNNFYPREAKVQWKVDNALQSGNSQESVTEQDSKDSTYSLSSTLTLSKADYEKHKVYACEVTHQGLSSPVTKSFNRGECTSGGGGSGGGGSGGGGSQVQLVQSGGGVVQPGRSLRLSCKASGYTFTRYTMHWVRQAPGKGLEWIGYINPSRGYTNYNQKFKDRFTISRDNSKNTAFLQMDSLRPEDTGVYFCARYYDDHYSLDYWGQGTPVTVSSGGGGSGGGGSGGGGSGGGGSGGGGSGGGGSDIQMTQSPSSLSASVGDRVTITCSASSSVSYMNWYQQTPGKAPKRWIYDTSKLASGVPSRFSGSGSGTDYTFTISSLQPEDIATYYCQQWSSNPFTFGQGTKLQIT	–	–	1 pM
47D10-huIgG1-V6×OKT3 (anti-CLDN18.2×CD3) bispecific antibody (bispecific antibody) heavy: not shown light: DIVMTQSPLSLPVTPGEPASISCRSSQSLLNSGNQKNYLTWYLQKPGQSPQLLIYWASTRESGVPDRFSGSGSGTDFTLKISRVEAEDVGVYYCQNNYIYPLTFGQGTKLEIKRTVAAPSVFIFPPSDEQLKSGTASVVCLLNNFYPREAKVQWKVDNALQSGNSQESVTEQDSKDSTYSLSSTLTLSKADYEKHKVYACEVTHQGLSSPVTKSFNRGECTSGGGGSGGGGSGGGGSQVQLVQSGGGVVQPGRSLRLSCKASGYTFTRYTMHWVRQAPGKGLEWIGYINPSRGYTNYNQKFKDRFTISRDNSKNTAFLQMDSLRPEDTGVYFCARYYDDHYSLDYWGQGTPVTVSSGGGGSGGGGSGGGGSGGGGSGGGGSGGGGSDIQMTQSPSSLSASVGDRVTITCSASSSVSYMNWYQQTPGKAPKRWIYDTSKLASGVPSRFSGSGSGTDYTFTISSLQPEDIATYYCQQWSSNPFTFGQGTKLQIT	–	–	1 pM
31A6 mouse chimeric antibody (murine VH/VL on human IgG1 constant regions) (antibody, V domains shown, also called murine clone 31A6) VH: QTYLQQSGAELVRSGASVKMSCKASGYTFASYNIHWVKQTPGQGLEWIGYIYPGKDGSHYNQKFRDKATLTADTSSSTAYMQISSLTSEDSAVYFCARGGYYGNSFDYWGQGTLVTVSA VL: DIVMSQSPSSLTVTTGEKVTMTCKSSQSLLNSGNLKNYLAWYQQKPGQPPKLLIYWASIRESGVPDRFTGSGSGTDFTLTIISVQAEDLAIYYCQNAYTFPFTLGGGTKLEIK	10.9 nM	≥ 1000 times	–

More lines, in order of falling EC50 [2], values ahead:

EC50 [2]	fold stronger binding to CLDN18.2 than to CLDN18.1 [3]	Binder	TDCC activity (T cell dependent cellular cytotoxicity; CellTiter-Glo cell viability, PBMCs as effectors, 48 hours) [1]
1.26 nM	≥ 1000 times	29G4 mouse chimeric antibody (murine VH/VL on human IgG1 constant regions) (antibody, V domains shown, also called murine clone 29G4) VH: QVQLKESGPGLVAPSQTLSITCTVSGFSLTNYGVQWVRQPPGKGLEWLGVIWAGGNTNYNSALLSRLSISKDTSKSQVFLKMNSLKTDDTAMYYCARGGYGNSCDYWGQGTLVTVSA VL: DIVMTQSPSSLTVTAGEKVTMNCKSSQSLLNSGNQKNYLAWYRQKPGQPPKLLIYWASTRGSGVPDRFTGSGSGTDFALTISSVQAEDLAVYYCQNDYFYPLTFGAGTKLDLK	–
0.502 nM	≥ 1000 times	32G4 mouse chimeric antibody (murine VH/VL on human IgG1 constant regions) (antibody, V domains shown, also called murine clone 32G4; mouse 32G4 chimeric control antibody) VH: EVQLQQSGPELENPGASVKIFCKASGYSSTGYNINWVKQSSGKSLEWIGNINPYYGGITYNQKFKGKATLTVDKSSSTAYVQLKSLTSEDSAVYYCARDYYGNSFAYWGQGTLVTVST VL: DIVMTQSPSSLTVTAGEKVTMSCKSSQSLLNSGNQKNYLTWYQQNPGQPPKLLIFWASTRESGVPDRFTGSGSGTDFTLTISSVQAEDLAVYYCQNNYYFPYTFGGGTKLEIR	–
0.361 nM	–	47D10-huIgG1-V7 (antibody, V domains shown, Humanized full IgG1 antibody; also called humanized 47D10 variant V7; 47D10-V7) VH: QVQLVESGGGLVKPGGSLRLSCAASGFAFSSSAMSWIRQAPGKGLEWVATMTVGYIYTYYLDSVKGRFTISRDNAKNSLYLQMNSLRAEDTAVYYCARQGYGNAMDYWGQGTLVTVSS VL: DIVMTQSPGTLSLSPGERATLSCRSSQSLLNSGNQKNYLTWYQQKPGQAPRLLIYWASTRESGIPDRFSGSGSGTDFTLTISRLEPEDFAVYYCQNNYIYPLTFGQGTKLEIKR	–
0.22 nM	–	47D10-huIgG1-V6 (antibody, V domains shown, Humanized full IgG1 antibody; also called humanized 47D10 variant V6; 47D10-V6) VH: QVQLVESGGGLVKPGGSLRLSCAASGFAFSSSAMSWIRQAPGKGLEWVATMTVGYIYTYYLDSVKGRFTISRDNAKNSLYLQMNSLRAEDTAVYYCARQGYGNAMDYWGQGTLVTVSS VL: DIVMTQSPLSLPVTPGEPASISCRSSQSLLNSGNQKNYLTWYLQKPGQSPQLLIYWASTRESGVPDRFSGSGSGTDFTLKISRVEAEDVGVYYCQNNYIYPLTFGQGTKLEIKR	–
0.147 nM	–	32G4-huIgG1-V8 (antibody, V domains shown, Humanized full IgG1 antibody; also called humanized 32G4 variant V8; 32G4-V8) VH: QVQLVQSGAEVKKPGASVKVSCKASGYSSTGYNINWVRQAPGQGLEWMGNINPYYGGITYNQKFQGRVTMTVDKSISTAYMELSRLRSDDTVVYYCARDYYGNSFAYWGQGTLVTVSS VL: DIQMTQSPSSLSASVGDRVTITCRSSQSLLNSGNQKNYLTWYQQKPGKAPKLLIFWASTLESGVPSRFSGSGSGTDFTLTISSLQPEDFATYYCQNNYYFPYTFGQGTKLEIKR	–
0.129 nM	–	32G4-huIgG1-V9 (antibody, V domains shown, Humanized full IgG1 antibody; also called humanized 32G4 variant V9; 32G4-V9) VH: EVQLVQSGSELKKPGASVKVSCKASGYSSTGYNINWVRQAPGQGLEWIGNINPYYGGITYNQGFTGRFVLSVDKSSSTAYLQISSLKAEDTAVYYCARDYYGNSFAYWGQGTLVTVSS VL: DIVMTQSPDSLAVSLGERATINCKSSQSLLNSGNQKNYLTWYQQKPGQPPKLLIFWASTRESGVPDRFSGSGSGTDFTLTISSLQAEDVAVYYCQNNYYFPYTFGQGTKLEIKR	–
